Experimental data: publication PMC3320604, “A Genome-Wide Screen for Genetic Variants That Modify the Recruitment of REST to Its Target Genes”
Substitutions are numbered along the chain they refer to.

T1: HisMBP-REST/DBD (UniProt Q13127 159-412)
T1 sequence: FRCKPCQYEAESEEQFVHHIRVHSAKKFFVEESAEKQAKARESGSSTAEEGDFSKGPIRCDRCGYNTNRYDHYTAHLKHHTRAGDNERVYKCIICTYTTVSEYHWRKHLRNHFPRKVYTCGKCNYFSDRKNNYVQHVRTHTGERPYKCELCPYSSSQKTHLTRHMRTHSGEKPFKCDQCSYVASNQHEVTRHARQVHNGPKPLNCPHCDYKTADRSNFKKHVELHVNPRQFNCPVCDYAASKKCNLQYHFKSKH

B1: Ideal RE1 (Chrm4) (dsDNA)
DNA 1: TCAGCCTCTCTTCAGCACCTCGGACAGCTCCGGACCTCTC
DNA 2: GAGAGGTCCGGAGCTGTCCGAGGTGCTGAAGAGAGGCTGA
B2: Mutated RE1 (Mut) (dsDNA)
DNA 1: B1 DNA 1 with C18G, C19G, G22C, G23C
DNA 2: B1 DNA 2 with C18G, C19G, G22C, G23C

Assays:
[1] = biological target: T1, HisMBP-REST/DBD; assay: competition EMSA; 10 mM Tris-HCl pH 8.0, 100 mM KCl, 50 uM ZnCl2 (printed '50 M ZnCl', symbols lost), 2 mM 2-mercaptoethanol, 10% glycerol, 0.1% NP-40, 0.1 mg/ml BSA; 0.5 nM probe, 150 nM competitor, 40 nM protein, 1 h; temperature lost in text; details: protein: recombinant; tags: His-MBP
[2] = biological target: T1, HisMBP-REST/DBD; assay: competition; 10 mM Tris-HCl pH 8.0, 100 mM KCl, 50 uM ZnCl2 (printed '50 M ZnCl', symbols lost), 2 mM 2-mercaptoethanol, 10% glycerol, 0.1% NP-40, 0.1 mg/ml BSA; 0.5 nM probe, 150 nM competitor, 40 nM protein, 1 h; temperature lost in text; details: protein: recombinant; tags: His-MBP

| Binder | binding result [1] | binding result [2] |
| --- | --- | --- |
| B1 | binds |  |
| B2 |  | no binding |
